Read-outs that look alike come from different tables or passages of the source.
Legend:
TSHR260-AP (human) [1] = assay: TSHR260-AP bridge ELISA (full length TSHR on wells, TSHR260-AP in solution); IgG 100 µg/mL diluted in HBD serum
TSHR260-AP (human) [2] = assay: TSHR260-AP bridge ELISA (full length TSHR on wells, TSHR260-AP in solution); IgG 0.01 µg/mL diluted in HBD serum
[3] = target: TSHR260-alkaline phosphatase (TSHR260-AP) (human) (UniProt P05187); assay: TSHR260-AP bridge ELISA, full length TSHR on wells; 1 µg/mL, diluted in assay buffer
[4] = target: TSHR260-alkaline phosphatase (TSHR260-AP) (human) (UniProt P05187); assay: TSHR260-AP bridge ELISA, full length TSHR on wells; 0.5 µg/mL, diluted in HBD
[5] = target: TSHR260-alkaline phosphatase (TSHR260-AP) (human) (UniProt P05187); assay: TSHR260-AP bridge ELISA, full length TSHR on wells; 250 µg/mL, diluted in HBD
[6] = target: TSHR260-alkaline phosphatase (TSHR260-AP) (human) (UniProt P05187); assay: TSHR260-AP bridge ELISA, full length TSHR on wells; 0.1 µg/mL, diluted in HBD
[7] = target: human TSH receptor (full length, wild type) expressed in CHO cells (human) (UniProt P16473); assay: cell-based or functional assay
[8] = target: TSHR260-alkaline phosphatase (TSHR260-AP) (human) (UniProt P05187); assay: TSHR260-AP bridge ELISA, full length TSHR on wells; 0.01 µg/mL, diluted in HBD
[9] = target: TSHR260-alkaline phosphatase (TSHR260-AP) (human) (UniProt P05187); assay: TSHR260-AP bridge ELISA, full length TSHR on wells; 1 µg/mL, diluted in HBD
[10] = target: human TSH receptor (full length, wild type) expressed in CHO cells (human) (UniProt P16473); assay: cell-based or functional assay; remark: listed apart in the source
TSHR260-AP (human) [11] = assay: TSHR260-AP bridge ELISA (full length TSHR on wells, TSHR260-AP in solution); IgG 0.1 µg/mL diluted in HBD serum
TSHR260-AP (human) [12] = assay: TSHR260-AP bridge ELISA (full length TSHR on wells, TSHR260-AP in solution); IgG 250 µg/mL diluted in assay buffer
[13] = target: TSHR260-alkaline phosphatase (TSHR260-AP) (human) (UniProt P05187); assay: TSHR260-AP bridge ELISA, full length TSHR on wells; 10 µg/mL, diluted in HBD
[14] = target: TSHR260-alkaline phosphatase (TSHR260-AP) (human) (UniProt P05187); assay: TSHR260-AP bridge ELISA, full length TSHR on wells; 0.05 µg/mL, diluted in assay buffer
[15] = target: human TSH receptor (full length, wild type) expressed in CHO cells (human) (UniProt P16473); assay: cell-based or functional assay; remark: listed apart in the source
[16] = target: TSHR260-alkaline phosphatase (TSHR260-AP) (human) (UniProt P05187); assay: TSHR260-AP bridge ELISA, full length TSHR on wells; 250 µg/mL, diluted in assay buffer
TSHR260-AP (human) [17] = assay: TSHR260-AP bridge ELISA (full length TSHR on wells, TSHR260-AP in solution); IgG 0.5 µg/mL diluted in assay buffer
TSHR260-AP (human) [18] = assay: TSHR260-AP bridge ELISA (full length TSHR on wells, TSHR260-AP in solution); IgG 10 µg/mL diluted in assay buffer
[19] = target: human TSHR (wild type, full length) expressed in CHO cells (human) (UniProt P16473); assay: cell-based or functional assay
[20] = target: TSHR260-alkaline phosphatase (TSHR260-AP) (human) (UniProt P05187); assay: TSHR260-AP bridge ELISA, full length TSHR on wells; 0.1 µg/mL, diluted in assay buffer
TSHR260-AP (human) [21] = assay: TSHR260-AP bridge ELISA (full length TSHR on wells, TSHR260-AP in solution); IgG 0.01 µg/mL diluted in assay buffer
TSHR260-AP (human) [22] = assay: TSHR260-AP bridge ELISA (full length TSHR on wells, TSHR260-AP in solution); IgG 0.005 µg/mL diluted in HBD serum
TSHR260-AP (human) [23] = assay: TSHR260-AP bridge ELISA (full length TSHR on wells, TSHR260-AP in solution); IgG 0.05 µg/mL diluted in HBD serum
TSHR260-AP (human) [24] = assay: TSHR260-AP bridge ELISA (full length TSHR on wells, TSHR260-AP in solution); IgG 1 µg/mL diluted in assay buffer

B1: 5C9 IgG (antibody, from another filing, V domains shown)
VH: EVQLVESGGGLIQPGGSLRLSCAASGFTVSSNYMSWVRQAPGKGLEWVSVTYSGGSTSYADSVKGRFTISRDNSKNTLYLQMNSLRAEDTAVYYCARGGRYCSSISCYARSGCDYWGQGTLVTVSS
VL: AIQMTQSPSSLSASVGDRVTITCRASQSISNYLNWYQQKPGKAPKLLIYAASSLQSGVPSRFSGSGSGTDFTLTISSLQPEDFATYYCQQSYSSPSTTFGQGTKLEIK
Mean absorbance at 405 nm (absorbance at 405 nm) (TSHR260-AP (human) [1]): 0.027
Mean absorbance at 405 nm (absorbance at 405 nm) (TSHR260-AP (human) [2]): 0.017
Mean absorbance at 405 nm (absorbance at 405 nm) [3]: 0.011
Mean absorbance at 405 nm (absorbance at 405 nm) [4]: 0.016
Mean absorbance at 405 nm (absorbance at 405 nm) [5]: 0.058
Mean absorbance at 405 nm (absorbance at 405 nm) [6]: -0.005
% Inhibition; T10 serum + 100 µg/mL 5C9 IgG [7]: 98.4%
% Inhibition; T11 serum + 100 µg/mL 5C9 IgG [7]: 8.5%
% Inhibition; T12 serum + 100 µg/mL 5C9 IgG [7]: 96.3%
Cyclic AMP concentration; 100 µg/mL 5C9 IgG alone [7]: 0.9 pmol/mL
Cyclic AMP concentration; HBD + 100 µg/mL 5C9 IgG [7]: 1.1 pmol/mL
Cyclic AMP concentration; T10 serum + 100 µg/mL 5C9 IgG [7]: 0.9 pmol/mL
Cyclic AMP concentration; T11 serum + 100 µg/mL 5C9 IgG [7]: 37.5 pmol/mL
Cyclic AMP concentration; T12 serum + 100 µg/mL 5C9 IgG [7]: 1.6 pmol/mL
Mean absorbance at 405 nm (absorbance at 405 nm) [8]: 0.017
Mean absorbance at 405 nm (absorbance at 405 nm) [9]: 0.045
% Inhibition; T4 serum + 100 µg/mL 5C9 IgG [10]: 97.6%
% Inhibition; T5 serum + 100 µg/mL 5C9 IgG [10]: 98.3%
% Inhibition; T6 serum + 100 µg/mL 5C9 IgG [10]: 97.8%
Cyclic AMP concentration; 100 µg/mL 5C9 IgG alone [10]: 1.2 pmol/mL
Cyclic AMP concentration; HBD + 100 µg/mL 5C9 IgG [10]: 1.8 pmol/mL
Cyclic AMP concentration; T4 serum + 100 µg/mL 5C9 IgG [10]: 1.9 pmol/mL
Cyclic AMP concentration; T5 serum + 100 µg/mL 5C9 IgG [10]: 1.1 pmol/mL
Cyclic AMP concentration; T6 serum + 100 µg/mL 5C9 IgG [10]: 1.8 pmol/mL
Mean absorbance at 405 nm (absorbance at 405 nm) (TSHR260-AP (human) [11]): -0.005
Mean absorbance at 405 nm (absorbance at 405 nm) (TSHR260-AP (human) [12]): 1.12
Mean absorbance at 405 nm (absorbance at 405 nm) [13]: 0.004
Mean absorbance at 405 nm (absorbance at 405 nm) [14]: -0.008
% Inhibition; T7 serum + 100 µg/mL 5C9 IgG [15]: 97.7%
% Inhibition; T8 serum + 100 µg/mL 5C9 IgG [15]: 97.9%
% Inhibition; T9 serum + 100 µg/mL 5C9 IgG [15]: 94.7%
Cyclic AMP concentration; HBD + 100 µg/mL 5C9 IgG [15]: 2.7 pmol/mL
Cyclic AMP concentration; T7 serum + 100 µg/mL 5C9 IgG [15]: 2.1 pmol/mL
Cyclic AMP concentration; T8 serum + 100 µg/mL 5C9 IgG [15]: 1.8 pmol/mL
Cyclic AMP concentration; T9 serum + 100 µg/mL 5C9 IgG [15]: 3 pmol/mL
Mean absorbance at 405 nm (absorbance at 405 nm) [16]: 1.12
Mean absorbance at 405 nm (absorbance at 405 nm) (TSHR260-AP (human) [17]): -0.005
Mean absorbance at 405 nm (absorbance at 405 nm) (TSHR260-AP (human) [18]): 0.099
% Inhibition of T13 serum stimulation; 100 µg/mL 5C9 IgG [19]: 97.5%
% Inhibition of T14 serum stimulation; 100 µg/mL 5C9 IgG [19]: 94.9%
% Inhibition of T15 serum stimulation; 100 µg/mL 5C9 IgG [19]: 96.9%
Cyclic AMP concentration; 100 µg/mL 5C9 IgG alone [19]: 0.9 pmol/mL
Cyclic AMP concentration; HBD + 100 µg/mL 5C9 IgG [19]: 1 pmol/mL
Cyclic AMP concentration; T13 serum + 100 µg/mL 5C9 IgG [19]: 1.2 pmol/mL
Cyclic AMP concentration; T14 serum + 100 µg/mL 5C9 IgG [19]: 1.4 pmol/mL
Cyclic AMP concentration; T15 serum + 100 µg/mL 5C9 IgG [19]: 1.6 pmol/mL
Mean absorbance at 405 nm (absorbance at 405 nm) [20]: -0.013
Mean absorbance at 405 nm (absorbance at 405 nm) (TSHR260-AP (human) [21]): -0.001
Mean absorbance at 405 nm (absorbance at 405 nm) (TSHR260-AP (human) [22]): 0.02
Mean absorbance at 405 nm (absorbance at 405 nm) (TSHR260-AP (human) [23]): -0.003
Mean absorbance at 405 nm (absorbance at 405 nm) (TSHR260-AP (human) [24]): 0.011
